The target of data set [1] is PNPase WT;Hfq (Escherichia coli;Escherichia coli) (UniProt P05055+P0A6X3). As to the kind of experiment: cryo-EM. To be noted: EMSA: 0.4 uM RNA, PNPase trimer 1:1 and 3:1 over RNA, 20 mM Tris pH 7.5, 100 mM NaCl, 1 mM MgCl2, 1 mM DTT, 30 C 20 min; native PAA gel with 10% glycerol …. For orientation: A gel shift assay detects complexes by their altered migration in electrophoresis.

The target in data set [2] is PNPase S1x4;Hfq R681A;Q682A;R684A;R686A (Escherichia coli;Escherichia coli) (UniProt P05055+P0A6X3). The data set is described as follows: EMSA. To be noted: EMSA: 0.4 uM RNA, PNPase trimer 1:1 and 3:1 over RNA, 20 mM Tris pH 7.5, 100 mM NaCl, 1 mM MgCl2, 1 mM DTT, 30 C 20 min; native PAA gel with 10% glycerol ….

For 1 sequence, binding results are on record in article PMC8294330.

Consider “GCGAUCAGGAAGACCCUCGCGGAGAACCUGAAAGCACGACAUUGCUCACAUUGCUUCCAGUAUUACUUAGCCAGCCGGGUGCUGGCUUUUUUUUU [RyhB]”, for which the binding entry is listed as “binds” in data set [1] and “no binding” in data set [2].
